The assay deals with CgYps1 (C. glabrata (endogenous in derivatives of strain BG2)). In words: co-IP; precleared lysates (6 mg) incubated with anti-CgYps1 antibody-conjugated beads for 12 h at 4°C; blots with anti-CgYps1 and anti-CgPst2; cells untreated or treated with menadione (90 μM for 90 min).

“CgPst2 (from UniProt Q6FM13 1-198) (natural protein)” displayed an amount of CgPst2 co-precipitated in MD-treated against untreated cells of 40 % lower.

The values above are taken from paper PMC7943015.
